This note sets out measurements from patent US12083109B2, “Neurokinin antagonists and uses thereof” (California Institute of Technology, priority 2017, dated 2024).

Entries after “also recorded” stand apart in the source; their conditions may differ.

This data set relates to Tac2. Description: Looming disk assay, Tac2 shRNA knockdown. The format is in vivo, mouse. Conditions: SIS mice. From the text:
Small hairpin RNA (shRNA) for the mouse Tac2 gene (NM_009312.2) were designed using the online designing tool siDirect 2.0 (http://sidirect2.mai.jp/) (Naito et al., 2009; incorporated by reference in its entirety).
8-16 week old mice were anesthetized with isoflurane and mounted in a stereotaxic apparatus (Kopf Instruments). Anesthesia was maintained throughout surgery at 1-1.5% isoflurane. The skull was exposed and small burr holes produced dorsal to each injection site using a stereotaxic mounted drill. Virus was backfilled into pulled fine glass capillaries (˜50 μm diameter at tip) and pressure injections of 300 nl were made bilaterally into either the dBNSTa (AP +0.25, ML ±0.85, DV −4.1), DMH (AP −1.3, ML±0.35, DV −5.6), or CeA (AP −1.4, ML ±2.6, DV −4.73) at a rate of 30nl per minute using a nanoliter injector (Nanoliter 2000, World Precision Instruments) controlled by an ultra microsyringe pump (Micro4, World Precision Instruments). Capillaries remained in place for 5 minutes following injections to allow for full diffusion of virus and to reduce backflow up the injection tract. Skin above the skull was then drawn together and sealed with GLUture (Zoetis). For bilateral cannula implantations, single or double guide cannulas (custom, Plastics One) aimed 0.5 mm above each region were implanted and held in place with dental cement (Parkell). Compatible dummy cannulas with a 0.5 mm protrusion at the tip were inserted to prevent cannula clogging. Directly following surgery, mice were given a subcutaneous injection of ketoprofen (2 mg/kg) and supplied with drinking water containing 400 mg/L sulphamethoxazole and 200 mg/L ibuprofen and monitored for 7 days. Dummies were replaced every 2-3 days to keep cannula tracts clean. All injections were subsequently verified histologically.
Freezing behavior to presentation of an overhead looming disk proceeded as previously described (Kunwar et al., 2015; Yilmaz and Meister, 2013; incorporated by reference in their entirety). Briefly, mice were transported to a novel behavioral testing room. […] Behavior was recorded using a video recorder attached to a laptop equipped with video capture software (Corel VideoStudio Pro). Acute freezing behavior to the looming disk (“during”) as well as in the 30 seconds following the last disk (“post”) were scored manually (Behavior Annotator, MATLAB) by an observer blind to environmental conditions.
To further investigate a role for local Tac2 release in mediating different effects of SIS, we asked next whether Tac2 synthesis played a role in each of the three brain regions studied, via targeted shRNAi-mediated knockdown of Tac2. […] Injections were histologically verified by zsGreen fluorescence. […]

B1: shRNA-2: small hairpin RNA for mouse Tac2 gene (SEQ ID NO: 11, 12), expressed from AAV5-H1-shRNA-CMV-zsGreen (nucleic acid)
chain 1: CCGCCTCAACCCCATAGCAATTAGCTTCCTGTCACTAATTGCTATGGGGTTGAGGCTTTTTT
chain 2: AAAAAAGCCTCAACCCCATAGCAATTAGTGACAGGAAGCTAATTGCTATGGGGTTGAGGCGG
On to B1, for which, for the setting “AAV shRNA in dBNSTa”, the “acute (during) freezing to looming disk” value is given as “additionally reduced; also recorded: significantly reduced”.

B2: shRNA-1: small hairpin RNA for mouse Tac2 gene (SEQ ID NO: 9, 10), expressed from AAV5-H1-shRNA-CMV-zsGreen (nucleic acid)
chain 1: CCGACGTGGTTGAAGAGAACACCGCTTCCTGTCACGGTGTTCTCTTCAACCACGTCTTTTTT
chain 2: AAAAAAGACGTGGTTGAAGAGAACACCGTGACAGGAAGCGGTGTTCTCTTCAACCACGTCGG
With B2, for the setting “AAV shRNA in CeA”, the “freezing to looming disk (acute, during stimulus)” value was “blocked”. Under “AAV shRNA in dBNSTa”, the “acute (during) freezing to looming disk” value is given as “had no effect” and the “persistent (post) freezing to looming disk” value is “blocked; also recorded: strongly reduced”.
